Consider four molecules from paper PMC9482650, “Quantitative fragmentomics allow affinity mapping of interactomes” (Nature Communications, 2022).

Targets include AHNAK1, Q09666; DLG1_3, Q12959; DLG2_3, Q15700; HTRA1, Q92743; IL16_3, Q14005; MAGI2_5, Q86UL8; MAST1, Q9Y2H9; NHERF4_2, Q86UT5; NOS1, P29475; PICK1, Q9NRD5; PTPN3, P26045; TJP1_2, Q07157.
Common to all, as to test: holdup assay
Set-up in all cases: key: below the threshold = too weak to quantify, mostly under pKd 3.1 to 4
Common to all, as to conditions: plain residues with an end cap or a label only (N-terminal biotin on a linker: ado-ado)

The next test concerns the target T1, APBA3_1, O96018.
T1 sequence (O96018 389-490, limits assumed, looked up): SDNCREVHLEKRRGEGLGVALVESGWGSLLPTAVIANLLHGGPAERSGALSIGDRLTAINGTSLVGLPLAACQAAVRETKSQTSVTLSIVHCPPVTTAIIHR

For another test, the target named is T2, ARHGEF11, O15085.
T2 sequence (O15085 42-136, limits assumed, looked up): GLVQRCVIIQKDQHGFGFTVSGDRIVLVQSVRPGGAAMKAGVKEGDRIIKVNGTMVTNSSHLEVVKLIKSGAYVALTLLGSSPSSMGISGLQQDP

The target in a further test is T3, DFNB31_3, Q9P202.
T3 sequence (Q9P202 811-907, limits assumed, looked up): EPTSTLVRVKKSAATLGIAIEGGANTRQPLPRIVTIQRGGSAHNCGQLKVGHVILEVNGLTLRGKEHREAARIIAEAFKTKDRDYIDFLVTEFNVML

Another test concerns the target T4, DLG3_1, Q92796.
T4 sequence (Q92796 125-227, limits assumed, looked up): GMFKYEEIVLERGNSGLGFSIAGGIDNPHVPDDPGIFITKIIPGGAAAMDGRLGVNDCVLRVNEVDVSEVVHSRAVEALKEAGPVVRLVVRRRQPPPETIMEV

A further test deals with T5, LIN7A, O14910.
T5 sequence (O14910 103-200, limits assumed, looked up): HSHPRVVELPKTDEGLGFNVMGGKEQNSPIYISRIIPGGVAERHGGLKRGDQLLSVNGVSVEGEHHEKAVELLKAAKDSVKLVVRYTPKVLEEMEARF

A further test deals with T6, LRRC7, Q96NW7.
T6 sequence (Q96NW7 1440-1537, limits assumed, looked up): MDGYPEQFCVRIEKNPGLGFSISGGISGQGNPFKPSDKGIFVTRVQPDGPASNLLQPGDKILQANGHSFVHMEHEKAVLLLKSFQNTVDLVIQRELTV

Another test deals with T7, MPDZ_10, O75970.
T7 sequence (O75970 1624-1722, limits assumed, looked up): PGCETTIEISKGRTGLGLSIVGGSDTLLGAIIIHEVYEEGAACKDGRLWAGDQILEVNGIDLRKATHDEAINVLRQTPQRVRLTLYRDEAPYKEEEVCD

The target in the next test is T8, MPDZ_12, O75970.
T8 sequence (O75970 1857-1958, limits assumed, looked up): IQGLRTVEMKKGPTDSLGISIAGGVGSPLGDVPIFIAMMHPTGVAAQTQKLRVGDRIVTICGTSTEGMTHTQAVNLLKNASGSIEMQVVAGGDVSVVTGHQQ

For a further test, the target named is T9, MPDZ_5, O75970.
T9 sequence (O75970 695-796, limits assumed, looked up): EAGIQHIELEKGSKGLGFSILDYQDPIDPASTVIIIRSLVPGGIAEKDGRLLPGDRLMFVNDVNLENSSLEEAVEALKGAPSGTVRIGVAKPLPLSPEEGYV

A further test has as its target T10, NHERF3_4, Q5T2W1.
T10 sequence (Q5T2W1 373-468, limits assumed, looked up): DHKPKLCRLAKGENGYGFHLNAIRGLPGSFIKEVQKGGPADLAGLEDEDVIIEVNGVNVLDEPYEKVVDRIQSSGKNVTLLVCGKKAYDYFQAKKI

Another test addresses T11, PDZRN3_1, Q9UPQ7.
T11 sequence (Q9UPQ7 244-349, limits assumed, looked up): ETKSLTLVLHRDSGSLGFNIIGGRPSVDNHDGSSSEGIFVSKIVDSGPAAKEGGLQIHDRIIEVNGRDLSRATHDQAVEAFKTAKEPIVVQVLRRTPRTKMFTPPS

A further test has as its target T12, TX1BP3, O14907.
T12 sequence (O14907 10-122, limits assumed, looked up): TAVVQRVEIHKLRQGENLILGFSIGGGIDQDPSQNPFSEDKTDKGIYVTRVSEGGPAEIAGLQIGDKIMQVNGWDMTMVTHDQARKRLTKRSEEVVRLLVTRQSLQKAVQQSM

NHERF4_2, Q86UT5, sequence (Q86UT5 220-308): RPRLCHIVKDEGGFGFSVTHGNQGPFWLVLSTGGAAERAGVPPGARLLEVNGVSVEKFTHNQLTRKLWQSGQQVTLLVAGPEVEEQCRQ
HTRA1, Q92743, sequence (Q92743 360-477): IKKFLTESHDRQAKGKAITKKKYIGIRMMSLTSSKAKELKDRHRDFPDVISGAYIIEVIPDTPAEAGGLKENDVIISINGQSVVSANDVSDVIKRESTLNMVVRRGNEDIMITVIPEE
DLG1_3, Q12959, sequence (Q12959 457-571): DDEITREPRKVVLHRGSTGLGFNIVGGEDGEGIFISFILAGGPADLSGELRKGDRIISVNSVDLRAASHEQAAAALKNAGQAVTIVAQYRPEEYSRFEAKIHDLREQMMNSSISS
MAGI2_5, Q86UL8, sequence (Q86UL8 915-1017): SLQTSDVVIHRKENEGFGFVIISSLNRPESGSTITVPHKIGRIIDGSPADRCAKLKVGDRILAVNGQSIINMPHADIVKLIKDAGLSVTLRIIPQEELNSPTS
TJP1_2, Q07157, sequence (Q07157 181-274): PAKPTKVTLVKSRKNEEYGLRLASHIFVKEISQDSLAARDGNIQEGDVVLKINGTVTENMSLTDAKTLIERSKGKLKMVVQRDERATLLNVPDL
IL16_3, Q14005, sequence (Q14005 1107-1207): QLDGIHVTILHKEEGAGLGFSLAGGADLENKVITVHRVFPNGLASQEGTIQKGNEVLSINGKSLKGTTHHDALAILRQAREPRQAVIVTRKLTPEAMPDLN
MAST1, Q9Y2H9, sequence (Q9Y2H9 962-1065): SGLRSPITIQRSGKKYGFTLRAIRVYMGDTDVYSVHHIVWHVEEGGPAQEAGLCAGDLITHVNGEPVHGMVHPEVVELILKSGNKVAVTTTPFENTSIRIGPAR
NOS1, P29475, sequence (P29475 9-101): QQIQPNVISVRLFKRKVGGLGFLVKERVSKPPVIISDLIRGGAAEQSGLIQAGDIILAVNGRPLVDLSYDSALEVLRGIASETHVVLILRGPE
PTPN3, P26045, sequence (P26045 505-587): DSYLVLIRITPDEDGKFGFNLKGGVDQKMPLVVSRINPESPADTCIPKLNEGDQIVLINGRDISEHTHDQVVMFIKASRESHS
PICK1, Q9NRD5, sequence (Q9NRD5 17-115): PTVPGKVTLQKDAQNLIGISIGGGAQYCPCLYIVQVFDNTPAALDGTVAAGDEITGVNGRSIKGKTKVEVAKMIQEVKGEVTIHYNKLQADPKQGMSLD
AHNAK1, Q09666, sequence (Q09666 4-100): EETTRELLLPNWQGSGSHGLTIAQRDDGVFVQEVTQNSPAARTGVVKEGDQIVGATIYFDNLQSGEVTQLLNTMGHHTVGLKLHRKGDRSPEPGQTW

B1: GAS2L2, Q8NHY3 (peptide)
chain: PLPPEEESWV
By pKd is commonly meant the Kd on a negative log10 scale, so that one unit is a factor of ten. As to B1, the pKd entry with AHNAK1, Q09666 was “below the threshold”; with APBA3_1, O96018, “below the threshold”; with ARHGEF11, O15085, 4.46; with DFNB31_3, Q9P202, 3.99; with DLG1_3, Q12959 it was “below the threshold”; with DLG2_3, Q15700, 3.86. Moreover, the pKd in the test with DLG3_1, Q92796 was 4.01; in the test with HTRA1, Q92743, 5.14; in the test with IL16_3, Q14005, “below the threshold”; with LIN7A, O14910, “below the threshold”; with LRRC7, Q96NW7, 4.96; with MAGI2_5, Q86UL8, 4.92. Also, the pKd entry was “below the threshold” with MAST1, Q9Y2H9; “below the threshold” in the test with MPDZ_10, O75970; 4.36 in the test with MPDZ_12, O75970; 3.79 in the test with MPDZ_5, O75970; “below the threshold” in the test with NHERF3_4, Q5T2W1; “below the threshold” in the test with NHERF4_2, Q86UT5. For the same molecule, the pKd with NOS1, P29475 is 4.06; with PDZRN3_1, Q9UPQ7 it was 3.52; with PICK1, Q9NRD5, “below the threshold”; in the test with PTPN3, P26045, 4.75; in the test with TJP1_2, Q07157, “below the threshold”; with TX1BP3, O14907 it was 4.62.

B2: FAM71C, Q8NEG0 (peptide)
chain: STYCDYTIEI
B2: the pKd result with AHNAK1, Q09666 is “below the threshold”; in the test with APBA3_1, O96018 it was “below the threshold”; with ARHGEF11, O15085 it was 4; with DFNB31_3, Q9P202, 3.86; with DLG1_3, Q12959, “below the threshold”; in the test with DLG2_3, Q15700, “below the threshold”. In addition, the negative-log Kd (pKd) result was “below the threshold” in the test with DLG3_1, Q92796; 5.38 in the test with HTRA1, Q92743; “below the threshold” in the test with IL16_3, Q14005; “below the threshold” with LIN7A, O14910; “below the threshold” with LRRC7, Q96NW7; “below the threshold” with MAGI2_5, Q86UL8. In addition, the pKd with MAST1, Q9Y2H9 was 4.47; with MPDZ_10, O75970, “below the threshold”; with MPDZ_12, O75970, “below the threshold”; in the test with MPDZ_5, O75970, “below the threshold”; in the test with NHERF3_4, Q5T2W1 it was “below the threshold”; with NHERF4_2, Q86UT5, 3.51. Moreover, the pKd in the test with NOS1, P29475 was 3.62; with PDZRN3_1, Q9UPQ7, “below the threshold”; in the test with PICK1, Q9NRD5, “below the threshold”; with PTPN3, P26045, 4.16; in the test with TJP1_2, Q07157, 3.65; with TX1BP3, O14907, “below the threshold”.

B3: NPSR1, Q6W5P4 (peptide)
chain: MQILSKPEFI
For B3, the pKd entry is “below the threshold” in the test with AHNAK1, Q09666; “below the threshold” with APBA3_1, O96018; “below the threshold” with ARHGEF11, O15085; “below the threshold” with DFNB31_3, Q9P202; “below the threshold” in the test with DLG1_3, Q12959; 3.53 with DLG2_3, Q15700. Also, the pKd entry was “below the threshold” in the test with DLG3_1, Q92796; 4.15 with HTRA1, Q92743; “below the threshold” with IL16_3, Q14005; “below the threshold” with LIN7A, O14910; “below the threshold” with LRRC7, Q96NW7; “below the threshold” with MAGI2_5, Q86UL8. The pKd with MAST1, Q9Y2H9 is 3.68; in the test with MPDZ_10, O75970, “below the threshold”; with MPDZ_12, O75970 it was 3.56; with MPDZ_5, O75970 it was “below the threshold”; in the test with NHERF3_4, Q5T2W1 it was 3.51; in the test with NHERF4_2, Q86UT5, “below the threshold”. Moreover, the pKd is 3.84 with NOS1, P29475; “below the threshold” with PDZRN3_1, Q9UPQ7; 4.08 with PICK1, Q9NRD5; 3.94 with PTPN3, P26045; “below the threshold” with TJP1_2, Q07157; “below the threshold” with TX1BP3, O14907.

B4: DUSP5, Q16690 (peptide)
chain: RSPVATATSC
For the molecule B4, the pKd entry is “below the threshold” with AHNAK1, Q09666; “below the threshold” with APBA3_1, O96018; “below the threshold” with ARHGEF11, O15085; “below the threshold” in the test with DFNB31_3, Q9P202; “below the threshold” with DLG1_3, Q12959; 3.7 with DLG2_3, Q15700. Also, the pKd entry with DLG3_1, Q92796 was “below the threshold”; with HTRA1, Q92743, “below the threshold”; in the test with IL16_3, Q14005, “below the threshold”; with LIN7A, O14910, “below the threshold”; with LRRC7, Q96NW7, “below the threshold”; in the test with MAGI2_5, Q86UL8 it was “below the threshold”. Besides, the pKd with MAST1, Q9Y2H9 is 3.81; with MPDZ_10, O75970 it was “below the threshold”; with MPDZ_12, O75970 it was “below the threshold”; in the test with MPDZ_5, O75970, “below the threshold”; in the test with NHERF3_4, Q5T2W1 it was “below the threshold”; with NHERF4_2, Q86UT5, “below the threshold”. Besides, the pKd result was “below the threshold” in the test with NOS1, P29475; “below the threshold” with PDZRN3_1, Q9UPQ7; 3.97 with PICK1, Q9NRD5; 4.05 in the test with PTPN3, P26045; “below the threshold” with TJP1_2, Q07157; “below the threshold” in the test with TX1BP3, O14907.
